IntAct's records for PubMed 19141287

B1: Mitotic checkpoint serine/threonine-protein kinase BUB1 (Homo sapiens), O43683 (parent)
chain: MDTPENVLQMLEAHMQSYKGNDPLGEWERYIQWVEENFPENKEYLITLLEHLMKEFLDKKKYHNDPRFISYCLKFAEYNSDLHQFFEFLYNHGIGTLSSPLYIAWAGHLEAQGELQHASAVLQRGIQNQAEPREFLQQQYRLFQTRLTETHLPAQARTSEPLHNVQVLNQMITSKSNPGNNMACISKNQGSELSGVISSACDKESNMERRVITISKSEYSVHSSLASKVDVEQVVMYCKEKLIRGESEFSFEELRAQKYNQRRKHEQWVNEDRHYMKRKEANAFEEQLLKQKMDELHKKLHQVVETSHEDLPASQERSEVNPARMGPSVGSQQELRAPCLPVTYQQTPVNMEKNPREAPPVVPPLANAISAALVSPATSQSIAPPVPLKAQTVTDSMFAVASKDAGCVNKSTHEFKPQSGAEIKEGCETHKVANTSSFHTTPNTSLGMVQATPSKVQPSPTVHTKEALGFIMNMFQAPTLPDISDDKDEWQSLDQNEDAFEAQFQKNVRSSGAWGVNKIISSLSSAFHVFEDGNKENYGLPQPKNKPTGARTFGERSVSRLPSKPKEEVPHAEEFLDDSTVWGIRCNKTLAPSPKSPGDFTSAAQLASTPFHKLPVESVHILEDKENVVAKQCTQATLDSCEENMVVPSRDGKFSPIQEKSPKQALSSHMYSASLLRLSQPAAGGVLTCEAELGVEACRLTDTDAAIAEDPPDAIAGLQAEWMQMSSLGTVDAPNFIVGNPWDDKLIFKLLSGLSKPVSSYPNTFEWQCKLPAIKPKTEFQLGSKLVYVHHLLGEGAFAQVYEATQGDLNDAKNKQKFVLKVQKPANPWEFYIGTQLMERLKPSMQHMFMKFYSAHLFQNGSVLVGELYSYGTLLNAINLYKNTPEKVMPQGLVISFAMRMLYMIEQVHDCEIIHGDIKPDNFILGNGFLEQDDEDDLSAGLALIDLGQSIDMKLFPKGTIFTAKCETSGFQCVEMLSNKPWNYQIDYFGVAATVYCMLFGTYMKVKNEGGECKPEGLFRRLPHLDMWNEFFHVMLNIPDCHHLPSLDLLRQKLKKVFQQHYTNKIRALRNRLIVLLLECKRSRK

Variants of: B1
Settings: with KNL1, Q8NG31-2
Chain of KNL1, Q8NG31-2 (Q8NG31 other isoform, or with tags, fused parts or gaps): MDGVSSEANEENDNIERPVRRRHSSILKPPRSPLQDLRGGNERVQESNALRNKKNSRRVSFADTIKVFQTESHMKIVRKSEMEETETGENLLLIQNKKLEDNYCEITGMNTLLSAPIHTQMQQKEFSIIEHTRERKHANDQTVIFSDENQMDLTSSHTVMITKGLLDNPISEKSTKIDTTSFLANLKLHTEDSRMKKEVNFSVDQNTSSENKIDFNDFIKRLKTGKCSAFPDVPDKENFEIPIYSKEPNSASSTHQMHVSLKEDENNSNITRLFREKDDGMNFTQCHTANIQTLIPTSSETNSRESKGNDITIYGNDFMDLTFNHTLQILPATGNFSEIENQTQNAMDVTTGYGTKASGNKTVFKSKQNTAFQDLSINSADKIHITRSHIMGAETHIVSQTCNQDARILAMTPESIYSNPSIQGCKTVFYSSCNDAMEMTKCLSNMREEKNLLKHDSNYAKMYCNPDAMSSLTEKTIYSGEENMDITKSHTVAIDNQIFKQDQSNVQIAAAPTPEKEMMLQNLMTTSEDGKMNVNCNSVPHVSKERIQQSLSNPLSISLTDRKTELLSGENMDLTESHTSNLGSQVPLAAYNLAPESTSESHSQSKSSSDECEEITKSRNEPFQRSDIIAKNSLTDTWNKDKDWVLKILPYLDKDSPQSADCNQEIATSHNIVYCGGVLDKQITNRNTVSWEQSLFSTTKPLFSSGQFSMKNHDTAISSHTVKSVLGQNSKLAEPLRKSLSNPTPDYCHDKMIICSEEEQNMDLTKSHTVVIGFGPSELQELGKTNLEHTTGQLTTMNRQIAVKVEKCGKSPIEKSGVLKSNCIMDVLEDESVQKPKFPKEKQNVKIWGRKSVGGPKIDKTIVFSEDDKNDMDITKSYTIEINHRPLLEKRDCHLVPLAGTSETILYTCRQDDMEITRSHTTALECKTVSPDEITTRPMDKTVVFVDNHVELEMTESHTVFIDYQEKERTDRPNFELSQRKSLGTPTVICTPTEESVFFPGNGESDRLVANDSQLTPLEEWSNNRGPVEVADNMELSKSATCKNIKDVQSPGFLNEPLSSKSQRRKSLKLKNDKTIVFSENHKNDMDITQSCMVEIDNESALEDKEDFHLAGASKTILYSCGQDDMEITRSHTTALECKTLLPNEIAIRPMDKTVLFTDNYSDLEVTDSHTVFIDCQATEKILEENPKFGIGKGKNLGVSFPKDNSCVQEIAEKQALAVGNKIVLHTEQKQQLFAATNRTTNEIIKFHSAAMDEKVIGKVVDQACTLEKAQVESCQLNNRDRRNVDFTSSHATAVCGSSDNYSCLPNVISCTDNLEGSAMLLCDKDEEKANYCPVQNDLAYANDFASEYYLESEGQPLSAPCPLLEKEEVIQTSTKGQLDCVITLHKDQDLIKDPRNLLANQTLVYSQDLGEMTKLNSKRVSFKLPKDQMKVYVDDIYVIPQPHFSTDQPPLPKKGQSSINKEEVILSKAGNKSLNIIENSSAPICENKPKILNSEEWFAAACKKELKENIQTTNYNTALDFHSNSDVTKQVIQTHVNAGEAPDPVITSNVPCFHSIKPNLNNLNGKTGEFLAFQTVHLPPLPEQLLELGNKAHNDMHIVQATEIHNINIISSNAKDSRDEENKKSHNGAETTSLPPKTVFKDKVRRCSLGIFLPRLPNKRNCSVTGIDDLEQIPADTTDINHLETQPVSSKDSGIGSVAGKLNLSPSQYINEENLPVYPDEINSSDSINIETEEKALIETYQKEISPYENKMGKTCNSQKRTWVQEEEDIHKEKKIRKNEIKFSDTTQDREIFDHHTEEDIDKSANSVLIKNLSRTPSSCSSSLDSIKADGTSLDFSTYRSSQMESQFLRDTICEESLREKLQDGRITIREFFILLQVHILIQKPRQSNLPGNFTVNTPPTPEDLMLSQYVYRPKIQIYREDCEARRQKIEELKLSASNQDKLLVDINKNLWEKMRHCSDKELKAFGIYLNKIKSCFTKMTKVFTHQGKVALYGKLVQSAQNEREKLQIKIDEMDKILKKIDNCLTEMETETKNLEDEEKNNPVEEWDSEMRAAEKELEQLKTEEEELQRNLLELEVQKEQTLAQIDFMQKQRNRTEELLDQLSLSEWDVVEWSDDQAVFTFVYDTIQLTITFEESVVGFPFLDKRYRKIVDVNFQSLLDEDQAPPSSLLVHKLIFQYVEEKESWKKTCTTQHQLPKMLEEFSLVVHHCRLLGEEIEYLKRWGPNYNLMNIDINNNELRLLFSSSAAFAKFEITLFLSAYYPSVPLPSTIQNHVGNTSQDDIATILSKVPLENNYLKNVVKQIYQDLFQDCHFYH

Effect of a mutation on the interaction, disrupting interaction:
L45G;L49G
G93A;I94G;G95L
D65G
G20S;N21Q;D22A
G93A;G95A
